Bridge positions count the residues as written; N and C are the ends. Square brackets hold non-standard residues; d marks the D form. 1Nal = N[C@@H](Cc1cccc2ccccc12)C(=O)O; 2Nal = N[C@@H](Cc1ccc2ccccc2c1)C(=O)O; d2Nal = N[C@H](Cc1ccc2ccccc2c1)C(=O)O; Bta = N[C@@H](Cc1csc2ccccc12)C(=O)O; βAla = NCCC(=O)O
B1: Ac-c(Cys-Glu-His-D-2-Nal-Arg-2-Nal-Ala-Cys)-Pro-Pro-Lys-Asp-β-[…]NH2 (peptide)
peptide: Ac-CEH[d2Nal]R[2Nal]ACPPKD[βAla]RRKRRQRRR-NH2
modifications: disulfide 1-8
SMILES: CC(=O)N[C@H]1CSSC[C@@H](C(=O)N2CCC[C@H]2C(=O)N2CCC[C@H]2C(=O)N[C@@H](CCCCN)C(=O)N[C@@H](CC(=O)O)C(=O)NCCC(=O)N[C@@H](CCCNC(=N)N)C(=O)N[C@@H](CCCNC(=N)N)C(=O)N[C@@H](CCCCN)C(=O)N[C@@H](CCCNC(=N)N)C(=O)N[C@@H](CCCNC(=N)N)C(=O)N[C@@H](CCC(N)=O)C(=O)N[C@@H](CCCNC(=N)N)C(=O)N[C@@H](CCCNC(=N)N)C(=O)N[C@@H](CCCNC(=N)N)C(N)=O)NC(=O)[C@H](C)NC(=O)[C@H](Cc2ccc3ccccc3c2)NC(=O)[C@H](CCCNC(=N)N)NC(=O)[C@@H](Cc2ccc3ccccc3c2)NC(=O)[C@H](Cc2c[nH]cn2)NC(=O)[C@H](CCC(=O)O)NC1=O
B2: Ac-c(Cys-Glu-His-D-2-Nal-Arg-1-Nal-Ala-Cys)-Pro-Pro-Arg-Asp-β-[…]NH2 (peptide)
peptide: Ac-CEH[d2Nal]R[1Nal]ACPPRD[βAla]RRRRRQRRR-NH2
modifications: disulfide 1-8
SMILES: CC(=O)N[C@H]1CSSC[C@@H](C(=O)N2CCC[C@H]2C(=O)N2CCC[C@H]2C(=O)N[C@@H](CCCNC(=N)N)C(=O)N[C@@H](CC(=O)O)C(=O)NCCC(=O)N[C@@H](CCCNC(=N)N)C(=O)N[C@@H](CCCNC(=N)N)C(=O)N[C@@H](CCCNC(=N)N)C(=O)N[C@@H](CCCNC(=N)N)C(=O)N[C@@H](CCCNC(=N)N)C(=O)N[C@@H](CCC(N)=O)C(=O)N[C@@H](CCCNC(=N)N)C(=O)N[C@@H](CCCNC(=N)N)C(=O)N[C@@H](CCCNC(=N)N)C(N)=O)NC(=O)[C@H](C)NC(=O)[C@H](Cc2cccc3ccccc23)NC(=O)[C@H](CCCNC(=N)N)NC(=O)[C@@H](Cc2ccc3ccccc3c2)NC(=O)[C@H](Cc2c[nH]cn2)NC(=O)[C@H](CCC(=O)O)NC1=O
B3: Ac-c(Cys-Glu-His-D-2-Nal-Arg-1-Nal-Ala-Cys)-Pro-Pro-Lys-Asp-β-[…]NH2 (peptide)
peptide: Ac-CEH[d2Nal]R[1Nal]ACPPKD[βAla]RRKRRQRRR-NH2
modifications: disulfide 1-8
SMILES: CC(=O)N[C@H]1CSSC[C@@H](C(=O)N2CCC[C@H]2C(=O)N2CCC[C@H]2C(=O)N[C@@H](CCCCN)C(=O)N[C@@H](CC(=O)O)C(=O)NCCC(=O)N[C@@H](CCCNC(=N)N)C(=O)N[C@@H](CCCNC(=N)N)C(=O)N[C@@H](CCCCN)C(=O)N[C@@H](CCCNC(=N)N)C(=O)N[C@@H](CCCNC(=N)N)C(=O)N[C@@H](CCC(N)=O)C(=O)N[C@@H](CCCNC(=N)N)C(=O)N[C@@H](CCCNC(=N)N)C(=O)N[C@@H](CCCNC(=N)N)C(N)=O)NC(=O)[C@H](C)NC(=O)[C@H](Cc2cccc3ccccc23)NC(=O)[C@H](CCCNC(=N)N)NC(=O)[C@@H](Cc2ccc3ccccc3c2)NC(=O)[C@H](Cc2c[nH]cn2)NC(=O)[C@H](CCC(=O)O)NC1=O
B4: Ac-c(Cys-Glu-His-D-2-Nal-Arg-2-Nal-Ala-Cys)-Pro-Pro-Lys-Asp-β-Ala-Tyr-Gly-Arg-Lys-Lys-Arg-Arg-Gln-Arg-Arg-Arg-NH2 (peptide)
peptide: CEHXRXACPPKDXYGRKKRRQRRR
modifications: N-terminal Ac; D-2-Nal at 4; 2-Nal at 6; β-Ala at 13; disulfide Cys1-Cys8; C-terminal NH2
B5: Ac-c(Cys-Glu-His-D-2-Nal-Arg-Bal-Ala-Cys)-Pro-Pro-Lys-Asp-β-[…]NH2 (peptide)
peptide: Ac-CEH[d2Nal]R[Bta]ACPPKD[βAla]YGRRRRRQRRR-NH2
modifications: disulfide 1-8
SMILES: CC(=O)N[C@H]1CSSC[C@@H](C(=O)N2CCC[C@H]2C(=O)N2CCC[C@H]2C(=O)N[C@@H](CCCCN)C(=O)N[C@@H](CC(=O)O)C(=O)NCCC(=O)N[C@@H](Cc2ccc(O)cc2)C(=O)NCC(=O)N[C@@H](CCCNC(=N)N)C(=O)N[C@@H](CCCNC(=N)N)C(=O)N[C@@H](CCCNC(=N)N)C(=O)N[C@@H](CCCNC(=N)N)C(=O)N[C@@H](CCCNC(=N)N)C(=O)N[C@@H](CCC(N)=O)C(=O)N[C@@H](CCCNC(=N)N)C(=O)N[C@@H](CCCNC(=N)N)C(=O)N[C@@H](CCCNC(=N)N)C(N)=O)NC(=O)[C@H](C)NC(=O)[C@H](Cc2csc3ccccc23)NC(=O)[C@H](CCCNC(=N)N)NC(=O)[C@@H](Cc2ccc3ccccc3c2)NC(=O)[C@H](Cc2c[nH]cn2)NC(=O)[C@H](CCC(=O)O)NC1=O
B6: Ac-c(Cys-Glu-His-D-2-Nal-Arg-2-Nal-Ala-Cys)-Pro-Pro-Lys-Asp-β-[…]NH2 (peptide)
peptide: Ac-CEH[d2Nal]R[2Nal]ACPPKD[βAla]YGRKRRRQRRR-NH2
modifications: disulfide 1-8
SMILES: CC(=O)N[C@H]1CSSC[C@@H](C(=O)N2CCC[C@H]2C(=O)N2CCC[C@H]2C(=O)N[C@@H](CCCCN)C(=O)N[C@@H](CC(=O)O)C(=O)NCCC(=O)N[C@@H](Cc2ccc(O)cc2)C(=O)NCC(=O)N[C@@H](CCCNC(=N)N)C(=O)N[C@@H](CCCCN)C(=O)N[C@@H](CCCNC(=N)N)C(=O)N[C@@H](CCCNC(=N)N)C(=O)N[C@@H](CCCNC(=N)N)C(=O)N[C@@H](CCC(N)=O)C(=O)N[C@@H](CCCNC(=N)N)C(=O)N[C@@H](CCCNC(=N)N)C(=O)N[C@@H](CCCNC(=N)N)C(N)=O)NC(=O)[C@H](C)NC(=O)[C@H](Cc2ccc3ccccc3c2)NC(=O)[C@H](CCCNC(=N)N)NC(=O)[C@@H](Cc2ccc3ccccc3c2)NC(=O)[C@H](Cc2c[nH]cn2)NC(=O)[C@H](CCC(=O)O)NC1=O
B7: Ac-c(Cys-Glu-His-D-2-Nal-Arg-Bal-Ala-Cys)-Pro-Pro-Lys-Asp-β-[…]NH2 (peptide)
peptide: Ac-CEH[d2Nal]R[Bta]ACPPKD[βAla]YGRRKRRQRRR-NH2
modifications: disulfide 1-8
SMILES: CC(=O)N[C@H]1CSSC[C@@H](C(=O)N2CCC[C@H]2C(=O)N2CCC[C@H]2C(=O)N[C@@H](CCCCN)C(=O)N[C@@H](CC(=O)O)C(=O)NCCC(=O)N[C@@H](Cc2ccc(O)cc2)C(=O)NCC(=O)N[C@@H](CCCNC(=N)N)C(=O)N[C@@H](CCCNC(=N)N)C(=O)N[C@@H](CCCCN)C(=O)N[C@@H](CCCNC(=N)N)C(=O)N[C@@H](CCCNC(=N)N)C(=O)N[C@@H](CCC(N)=O)C(=O)N[C@@H](CCCNC(=N)N)C(=O)N[C@@H](CCCNC(=N)N)C(=O)N[C@@H](CCCNC(=N)N)C(N)=O)NC(=O)[C@H](C)NC(=O)[C@H](Cc2csc3ccccc23)NC(=O)[C@H](CCCNC(=N)N)NC(=O)[C@@H](Cc2ccc3ccccc3c2)NC(=O)[C@H](Cc2c[nH]cn2)NC(=O)[C@H](CCC(=O)O)NC1=O
B8: Ac-c(Cys-Glu-His-D-2-Nal-Arg-1-Nal-Ala-Cys)-Pro-Pro-Lys-Asp-β-[…]NH2 (peptide)
peptide: Ac-CEH[d2Nal]R[1Nal]ACPPKD[βAla]YGRRKRRQRRR-NH2
modifications: disulfide 1-8
SMILES: CC(=O)N[C@H]1CSSC[C@@H](C(=O)N2CCC[C@H]2C(=O)N2CCC[C@H]2C(=O)N[C@@H](CCCCN)C(=O)N[C@@H](CC(=O)O)C(=O)NCCC(=O)N[C@@H](Cc2ccc(O)cc2)C(=O)NCC(=O)N[C@@H](CCCNC(=N)N)C(=O)N[C@@H](CCCNC(=N)N)C(=O)N[C@@H](CCCCN)C(=O)N[C@@H](CCCNC(=N)N)C(=O)N[C@@H](CCCNC(=N)N)C(=O)N[C@@H](CCC(N)=O)C(=O)N[C@@H](CCCNC(=N)N)C(=O)N[C@@H](CCCNC(=N)N)C(=O)N[C@@H](CCCNC(=N)N)C(N)=O)NC(=O)[C@H](C)NC(=O)[C@H](Cc2cccc3ccccc23)NC(=O)[C@H](CCCNC(=N)N)NC(=O)[C@@H](Cc2ccc3ccccc3c2)NC(=O)[C@H](Cc2c[nH]cn2)NC(=O)[C@H](CCC(=O)O)NC1=O
B9: Ac-c(Cys-Glu-His-D-2-Nal-Arg-Trp-Ala-Cys)-Pro-Pro-Lys-Asp-NH2 (peptide)
peptide: Ac-CEH[d2Nal]RWACPPKD-NH2
modifications: disulfide 1-8
SMILES: CC(=O)N[C@H]1CSSC[C@@H](C(=O)N2CCC[C@H]2C(=O)N2CCC[C@H]2C(=O)N[C@@H](CCCCN)C(=O)N[C@@H](CC(=O)O)C(N)=O)NC(=O)[C@H](C)NC(=O)[C@H](Cc2c[nH]c3ccccc23)NC(=O)[C@H](CCCNC(=N)N)NC(=O)[C@@H](Cc2ccc3ccccc3c2)NC(=O)[C@H](Cc2c[nH]cn2)NC(=O)[C@H](CCC(=O)O)NC1=O

These binders were tested against T1, human melanocortin receptor subtype 3 (hMC3-R) (human, UniProt P41968 1-323) (assay: [125I]-NDP-α-MSH competition, membranes).
T1 construct: whole, on cells; membranes of CHO-K1 cells
T1 sequence (P41968 whole entry): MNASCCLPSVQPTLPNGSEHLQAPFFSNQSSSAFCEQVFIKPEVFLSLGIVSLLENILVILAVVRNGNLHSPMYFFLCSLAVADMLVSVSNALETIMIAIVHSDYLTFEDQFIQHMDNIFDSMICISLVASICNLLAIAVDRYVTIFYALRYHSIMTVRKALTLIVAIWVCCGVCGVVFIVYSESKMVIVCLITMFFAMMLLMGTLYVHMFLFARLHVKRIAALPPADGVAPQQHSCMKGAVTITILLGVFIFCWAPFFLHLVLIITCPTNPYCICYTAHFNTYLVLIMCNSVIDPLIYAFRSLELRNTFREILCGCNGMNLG
Protocol: (§1) Cellular membranes used for the in vitro receptor binding assays were obtained from transgenic CHO-K1 cells stably expressing hMC-R receptor subtypes 1, 3, 4 or 5. […] The pellets were resuspended in the same buffer and centrifuged at 50,000 g for 10 minutes at approximately 4° C. The washed pellets containing the cellular membranes were stored at approximately −80° C.
(§2) Competitive inhibition of [¹²⁵I](Tyr²)-(Nle⁴-D-Phe⁷)α-MSH ([¹²⁵I]-NDP-α-MSH, Amersham Biosciences®) binding was carried out in polypropylene 96 well plates. Cell membranes (1-10 μg protein/well) prepared as described above were incubated in 50 mM Tris-HCl at pH 7.4 containing 0.2% bovine serum albumin (BSA), 5 mM MgCl₂, 1 mM CaCl₂ and 0.1 mg/mL bacitracin, with increasing concentrations of the test compound and 0.1-0.3 nM […] for approximately 90-120 minutes at approximately 37° C. Bound [¹²⁵I]-NDP-α-MSH ligand was separated from free [¹²⁵I]-NDP-α-MSH by filtration through GF/C glass fiber filter plates (Unifilter®; Packard) presoaked with 0.1% (w/v) polyethylenimine (PEI), using a Packard Filtermate® harvester. Filters were washed three times with 50 mM Tris-HCl at pH 7.4 at a temperature of approximately 0-4° C. and then assayed for radioactivity using a Packard Topcount® scintillation counter. Binding data were analyzed by computer-assisted non-linear regression analysis (XL fit; IDBS).

| Binder | Ki [nM] |
| --- | --- |
| Ac-CEH[d2Nal]R[Bta]ACPPKD[βAla]RRRRRQRRR-NH2 (disulfide 1-8) | 4.97 |
| B1 | 0.975 |
| B2 | 9.07 |
| B3 | 5.68 |
| B4 | 0.59 |
| B5 | 4.05 |
| B6 | 0.604 |
| B7 | 1.57 |
| B8 | 1.74 |
| B9 | 9 |

The binders below were run against T2, human melanocortin receptor subtype 5 (hMC5-R) (human, UniProt P33032 1-325) (assay: [125I]-NDP-α-MSH competition, membranes).
T2 construct: whole, on cells; membranes of CHO-K1 cells
T2 sequence (P33032 whole entry): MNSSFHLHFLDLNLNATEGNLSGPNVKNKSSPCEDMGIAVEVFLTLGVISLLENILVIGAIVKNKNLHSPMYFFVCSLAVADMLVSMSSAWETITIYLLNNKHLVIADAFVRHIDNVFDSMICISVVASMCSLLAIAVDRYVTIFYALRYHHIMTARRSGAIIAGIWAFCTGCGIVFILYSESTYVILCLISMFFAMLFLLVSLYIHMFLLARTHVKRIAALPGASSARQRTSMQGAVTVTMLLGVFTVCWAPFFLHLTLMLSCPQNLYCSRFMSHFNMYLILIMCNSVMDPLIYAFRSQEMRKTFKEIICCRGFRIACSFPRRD
Protocol: as §1, §2

| Binder | Ki [nM] |
| --- | --- |
| Ac-CEH[d2Nal]R[Bta]ACPPKD[βAla]RRRRRQRRR-NH2 (disulfide 1-8) | 38.3 |
| B1 | 11.3 |
| B2 | 59 |
| B3 | 45.3 |
| B4 | 4.38 |
| B5 | 31.1 |
| B6 | 3.13 |
| B7 | 16.4 |
| B8 | 16.8 |
| B9 | 218 |

Each binder was assayed against T3, human melanocortin receptor subtype 4 (hMC4-R) (human, UniProt P32245 1-332) (assay: [125I]-NDP-α-MSH competition, membranes).
T3 construct: whole, on cells; membranes of CHO-K1 cells
T3 sequence (P32245 whole entry): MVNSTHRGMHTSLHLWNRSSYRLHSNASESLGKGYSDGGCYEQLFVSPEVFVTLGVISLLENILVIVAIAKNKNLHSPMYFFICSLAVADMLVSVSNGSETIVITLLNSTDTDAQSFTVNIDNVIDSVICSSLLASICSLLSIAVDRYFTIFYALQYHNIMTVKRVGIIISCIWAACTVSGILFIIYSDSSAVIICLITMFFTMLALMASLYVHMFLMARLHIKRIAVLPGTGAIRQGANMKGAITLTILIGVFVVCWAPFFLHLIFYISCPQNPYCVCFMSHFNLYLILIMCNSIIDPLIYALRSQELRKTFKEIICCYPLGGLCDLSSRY
Protocol: as §1, §2

| Binder | Ki [nM] |
| --- | --- |
| Ac-CEH[d2Nal]R[Bta]ACPPKD[βAla]RRRRRQRRR-NH2 (disulfide 1-8) | 0.192 |
| B1 | 0.549 |
| B2 | 0.293 |
| B3 | 0.505 |
| B4 | 0.17 |
| B5 | 0.498 |
| B6 | 0.865 |
| B7 | 0.437 |
| B8 | 0.15 |
| B9 | 0.569 |

Each binder was assayed against T4, human melanocortin receptor subtype 1 (hMC1-R) (human, UniProt Q01726 1-317) (assay: [125I]-NDP-α-MSH competition, membranes).
T4 construct: whole, on cells; membranes of CHO-K1 cells
T4 sequence (Q01726 whole entry): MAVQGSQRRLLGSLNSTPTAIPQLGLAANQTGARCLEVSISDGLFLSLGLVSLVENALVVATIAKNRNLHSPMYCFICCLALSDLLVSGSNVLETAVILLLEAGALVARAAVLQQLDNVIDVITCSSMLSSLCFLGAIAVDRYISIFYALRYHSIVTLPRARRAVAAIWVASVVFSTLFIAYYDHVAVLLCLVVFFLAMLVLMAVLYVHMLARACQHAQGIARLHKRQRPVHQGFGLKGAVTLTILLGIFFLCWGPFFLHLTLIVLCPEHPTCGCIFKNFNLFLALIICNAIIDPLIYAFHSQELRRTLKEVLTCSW
Protocol: as §1, §2

| Binder | Ki [nM] |
| --- | --- |
| Ac-CEH[d2Nal]R[Bta]ACPPKD[βAla]RRRRRQRRR-NH2 (disulfide 1-8) | 3.86 |
| B1 | 3.41 |
| B2 | 2.93 |
| B3 | 4.62 |
| B4 | 1.74 |
| B5 | 3.07 |
| B6 | 1.49 |
| B7 | 2.24 |
| B8 | 1.75 |
| B9 | 49.9 |
